In patent publication US20180155451A1 (published 2018):

T1: FcγRIIa R (human, UniProt P12318 34-217)
T1 construct: extracellular domain; also called FcgRIIa R type; 2aR
T1 sequence (looked up): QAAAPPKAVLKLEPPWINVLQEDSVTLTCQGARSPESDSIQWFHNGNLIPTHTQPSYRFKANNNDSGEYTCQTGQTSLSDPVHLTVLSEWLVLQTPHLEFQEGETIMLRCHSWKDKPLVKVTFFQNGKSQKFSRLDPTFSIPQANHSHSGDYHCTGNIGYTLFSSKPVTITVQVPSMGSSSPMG

B1: GpH7-A5/GpH7-B3 variant G237_09D/GpL16-k0 (antibody, human IgG1, kappa)
heavy 1: not shown
heavy 2: not shown
light: DIVMTQSPLSLPVTPGEPASISCQASESLVHSNRNTYLHWYLQKPGQSPQLLIYKVSNRFSGVPDRFSGSGSGTDFTLKISRVEAEDVGVYYCSQNTHVPPTFGQGTKVEIERTVAAPSVFIFPPSDEQLKSGTASVVCLLNNFYPREAKVQWKVDNALQSGNSQESVTEQDSKDSTYSLSSTLTLSKADYEKHKVYACEVTHQGLSSPVTKSFNRGEC
notes: also called He Ab G237_09D
B2: GpH7-A5/GpH7-B3 variant G237_10E/GpL16-k0 (antibody, human IgG1, kappa)
heavy 1: not shown
heavy 2: not shown
light: B1 light
notes: also called He Ab G237_10E
B3: GpH7-A5/GpH7-B3 variant G237_13S/GpL16-k0 (antibody, human IgG1, kappa)
heavy 1: not shown
heavy 2: not shown
light: B1 light
notes: also called He Ab G237_13S
B4: GpH7-A5/GpH7-B3 variant G237_15Y/GpL16-k0 (antibody, human IgG1, kappa)
heavy 1: not shown
heavy 2: not shown
light: B1 light
notes: also called He Ab G237_15Y
B5: GpH7-A5/GpH7-B3 variant G237_18N/GpL16-k0 (antibody, human IgG1, kappa)
heavy 1: not shown
heavy 2: not shown
light: B1 light
notes: also called He Ab G237_18N
B6: GpH7-A5/GpH7-B3 variant G237_19Q/GpL16-k0 (antibody, human IgG1, kappa)
heavy 1: not shown
heavy 2: not shown
light: B1 light
notes: also called He Ab G237_19Q
B7: GpH7-A5/GpH7-B3 variant G237_20W/GpL16-k0 (antibody, human IgG1, kappa)
heavy 1: not shown
heavy 2: not shown
light: B1 light
notes: also called He Ab G237_20W
B8: GpH7-A5/GpH7-B3 variant H268_01G/GpL16-k0 (antibody, human IgG1, kappa)
heavy 1: not shown
heavy 2: not shown
light: B1 light
notes: also called He Ab H268_01G
B9: GpH7-A5/GpH7-B3 variant H268_03V/GpL16-k0 (antibody, human IgG1, kappa)
heavy 1: not shown
heavy 2: not shown
light: B1 light
notes: also called He Ab H268_03V
B10: GpH7-A5/GpH7-B3 variant H268_05P/GpL16-k0 (antibody, human IgG1, kappa)
heavy 1: not shown
heavy 2: not shown
light: B1 light
notes: also called He Ab H268_05P
B11: GpH7-A5/GpH7-B3 variant H268_11K/GpL16-k0 (antibody, human IgG1, kappa)
heavy 1: not shown
heavy 2: not shown
light: B1 light
notes: also called He Ab H268_11K
B12: GpH7-A5/GpH7-B3 variant H268_12R/GpL16-k0 (antibody, human IgG1, kappa)
heavy 1: not shown
heavy 2: not shown
light: B1 light
notes: also called He Ab H268_12R
B13: GpH7-A5/GpH7-B3 variant H268_15Y/GpL16-k0 (antibody, human IgG1, kappa)
heavy 1: not shown
heavy 2: not shown
light: B1 light
notes: also called He Ab H268_15Y
B14: GpH7-A5/GpH7-B3 variant H268_20W/GpL16-k0 (antibody, human IgG1, kappa)
heavy 1: not shown
heavy 2: not shown
light: B1 light
notes: also called He Ab H268_20W
B15: GpH7-A5/GpH7-B3 variant I332_06M/GpL16-k0 (antibody, human IgG1, kappa)
heavy 1: not shown
heavy 2: not shown
light: B1 light
notes: also called He Ab I332_06M
B16: GpH7-A5/GpH7-B3 variant I332_14T/GpL16-k0 (antibody, human IgG1, kappa)
heavy 1: not shown
heavy 2: not shown
light: B1 light
notes: also called He Ab I332_14T
B17: GpH7-A5/GpH7-B3 variant I336_06M/GpL16-k0 (antibody, human IgG1, kappa)
heavy 1: not shown
heavy 2: not shown
light: B1 light
notes: also called He Ab I336_06M
B18: GpH7-A5/GpH7-B3 variant I336_08L/GpL16-k0 (antibody, human IgG1, kappa)
heavy 1: not shown
heavy 2: not shown
light: B1 light
notes: also called He Ab I336_08L
B19: GpH7-A5/GpH7-B3 variant I336_18N/GpL16-k0 (antibody, human IgG1, kappa)
heavy 1: not shown
heavy 2: not shown
light: B1 light
notes: also called He Ab I336_18N
B20: GpH7-A5/GpH7-B3 variant K326_03V/GpL16-k0 (antibody, human IgG1, kappa)
heavy 1: not shown
heavy 2: not shown
light: B1 light
notes: also called He Ab K326_03V
B21: GpH7-A5/GpH7-B3 variant K326_04F/GpL16-k0 (antibody, human IgG1, kappa)
heavy 1: not shown
heavy 2: not shown
light: B1 light
notes: also called He Ab K326_04F
B22: GpH7-A5/GpH7-B3 variant K326_07I/GpL16-k0 (antibody, human IgG1, kappa)
heavy 1: not shown
heavy 2: not shown
light: B1 light
notes: also called He Ab K326_07I
B23: GpH7-A5/GpH7-B3 variant K326_08L/GpL16-k0 (antibody, human IgG1, kappa)
heavy 1: not shown
heavy 2: not shown
light: B1 light
notes: also called He Ab K326_08L
B24: GpH7-A5/GpH7-B3 variant K326_12R/GpL16-k0 (antibody, human IgG1, kappa)
heavy 1: not shown
heavy 2: not shown
light: B1 light
notes: also called He Ab K326_12R
B25: GpH7-A5/GpH7-B3 variant K326_15Y/GpL16-k0 (antibody, human IgG1, kappa)
heavy 1: not shown
heavy 2: not shown
light: B1 light
notes: also called He Ab K326_15Y
B26: GpH7-A5/GpH7-B3 variant K326_18N/GpL16-k0 (antibody, human IgG1, kappa)
heavy 1: not shown
heavy 2: not shown
light: B1 light
notes: also called He Ab K326_18N
B27: GpH7-A5/GpH7-B3 variant K326_20W/GpL16-k0 (antibody, human IgG1, kappa)
heavy 1: not shown
heavy 2: not shown
light: B1 light
notes: also called He Ab K326_20W
B28: GpH7-A5/GpH7-B3 variant K334_02A/GpL16-k0 (antibody, human IgG1, kappa)
heavy 1: not shown
heavy 2: not shown
light: B1 light
notes: also called He Ab K334_02A
B29: GpH7-A5/GpH7-B3 variant K334_04F/GpL16-k0 (antibody, human IgG1, kappa)
heavy 1: not shown
heavy 2: not shown
light: B1 light
notes: also called He Ab K334_04F
B30: GpH7-A5/GpH7-B3 variant K334_05P/GpL16-k0 (antibody, human IgG1, kappa)
heavy 1: not shown
heavy 2: not shown
light: B1 light
notes: also called He Ab K334_05P
B31: GpH7-A5/GpH7-B3 variant K334_08L/GpL16-k0 (antibody, human IgG1, kappa)
heavy 1: not shown
heavy 2: not shown
light: B1 light
notes: also called He Ab K334_08L
B32: GpH7-A5/GpH7-B3 variant K334_10E/GpL16-k0 (antibody, human IgG1, kappa)
heavy 1: not shown
heavy 2: not shown
light: B1 light
notes: also called He Ab K334_10E
B33: GpH7-A5/GpH7-B3 variant K334_12R/GpL16-k0 (antibody, human IgG1, kappa)
heavy 1: not shown
heavy 2: not shown
light: B1 light
notes: also called He Ab K334_12R
B34: GpH7-A5/GpH7-B3 variant K334_13S/GpL16-k0 (antibody, human IgG1, kappa)
heavy 1: not shown
heavy 2: not shown
light: B1 light
notes: also called He Ab K334_13S
B35: GpH7-A5/GpH7-B3 variant K334_19Q/GpL16-k0 (antibody, human IgG1, kappa)
heavy 1: not shown
heavy 2: not shown
light: B1 light
notes: also called He Ab K334_19Q
B36: GpH7-A5/GpH7-B3 variant K334_20W/GpL16-k0 (antibody, human IgG1, kappa)
heavy 1: not shown
heavy 2: not shown
light: B1 light
notes: also called He Ab K334_20W
B37: GpH7-A5/GpH7-B3 variant L234_04F/GpL16-k0 (antibody, human IgG1, kappa)
heavy 1: not shown
heavy 2: not shown
light: B1 light
notes: also called He Ab L234_04F
B38: GpH7-A5/GpH7-B3 variant L234_09D/GpL16-k0 (antibody, human IgG1, kappa)
heavy 1: not shown
heavy 2: not shown
light: B1 light
notes: also called He Ab L234_09D
B39: GpH7-A5/GpH7-B3 variant L234_10E/GpL16-k0 (antibody, human IgG1, kappa)
heavy 1: not shown
heavy 2: not shown
light: B1 light
notes: also called He Ab L234_10E
B40: GpH7-A5/GpH7-B3 variant L234_20W/GpL16-k0 (antibody, human IgG1, kappa)
heavy 1: not shown
heavy 2: not shown
light: B1 light
notes: also called He Ab L234_20W
B41: GpH7-A5/GpH7-B3 variant L235_04F/GpL16-k0 (antibody, human IgG1, kappa)
heavy 1: not shown
heavy 2: not shown
light: B1 light
notes: also called He Ab L235_04F
B42: GpH7-A5/GpH7-B3 variant L235_09D/GpL16-k0 (antibody, human IgG1, kappa)
heavy 1: not shown
heavy 2: not shown
light: B1 light
notes: also called He Ab L235_09D
B43: GpH7-A5/GpH7-B3 variant L235_15Y/GpL16-k0 (antibody, human IgG1, kappa)
heavy 1: not shown
heavy 2: not shown
light: B1 light
notes: also called He Ab L235_15Y
B44: GpH7-A5/GpH7-B3 variant L235_20W/GpL16-k0 (antibody, human IgG1, kappa)
heavy 1: not shown
heavy 2: not shown
light: B1 light
notes: also called He Ab L235_20W
B45: GpH7-A5/GpH7-B3 variant L328_02A/GpL16-k0 (antibody, human IgG1, kappa)
heavy 1: not shown
heavy 2: not shown
light: B1 light
notes: also called He Ab L328_02A
B46: GpH7-A5/GpH7-B3 variant L328_09D/GpL16-k0 (antibody, human IgG1, kappa)
heavy 1: not shown
heavy 2: not shown
light: B1 light
notes: also called He Ab L328_09D
B47: GpH7-A5/GpH7-B3 variant L328_10E/GpL16-k0 (antibody, human IgG1, kappa)
heavy 1: not shown
heavy 2: not shown
light: B1 light
notes: also called He Ab L328_10E
B48: GpH7-A5/GpH7-B3 variant L328_13S/GpL16-k0 (antibody, human IgG1, kappa)
heavy 1: not shown
heavy 2: not shown
light: B1 light
notes: also called He Ab L328_13S
B49: GpH7-A5/GpH7-B3 variant L328_14T/GpL16-k0 (antibody, human IgG1, kappa)
heavy 1: not shown
heavy 2: not shown
light: B1 light
notes: also called He Ab L328_14T
B50: GpH7-A5/GpH7-B3 variant N325_01G/GpL16-k0 (antibody, human IgG1, kappa)
heavy 1: not shown
heavy 2: not shown
light: B1 light
notes: also called He Ab N325_01G
B51: GpH7-A5/GpH7-B3 variant N325_03V/GpL16-k0 (antibody, human IgG1, kappa)
heavy 1: not shown
heavy 2: not shown
light: B1 light
notes: also called He Ab N325_03V
B52: GpH7-A5/GpH7-B3 variant N325_04F/GpL16-k0 (antibody, human IgG1, kappa)
heavy 1: not shown
heavy 2: not shown
light: B1 light
notes: also called He Ab N325_04F
B53: GpH7-A5/GpH7-B3 variant N325_07I/GpL16-k0 (antibody, human IgG1, kappa)
heavy 1: not shown
heavy 2: not shown
light: B1 light
notes: also called He Ab N325_07I
B54: GpH7-A5/GpH7-B3 variant N325_08L/GpL16-k0 (antibody, human IgG1, kappa)
heavy 1: not shown
heavy 2: not shown
light: B1 light
notes: also called He Ab N325_08L
B55: GpH7-A5/GpH7-B3 variant N325_09D/GpL16-k0 (antibody, human IgG1, kappa)
heavy 1: not shown
heavy 2: not shown
light: B1 light
notes: also called He Ab N325_09D
B56: GpH7-A5/GpH7-B3 variant N325_10E/GpL16-k0 (antibody, human IgG1, kappa)
heavy 1: not shown
heavy 2: not shown
light: B1 light
notes: also called He Ab N325_10E
B57: GpH7-A5/GpH7-B3 variant N325_13S/GpL16-k0 (antibody, human IgG1, kappa)
heavy 1: not shown
heavy 2: not shown
light: B1 light
notes: also called He Ab N325_13S
B58: GpH7-A5/GpH7-B3 variant N325_14T/GpL16-k0 (antibody, human IgG1, kappa)
heavy 1: not shown
heavy 2: not shown
light: B1 light
notes: also called He Ab N325_14T
B59: GpH7-A5/GpH7-B3 variant N325_15Y/GpL16-k0 (antibody, human IgG1, kappa)
heavy 1: not shown
heavy 2: not shown
light: B1 light
notes: also called He Ab N325_15Y

What follows are binders tested against T1, FcγRIIa R (assay: SPR Biacore; vs GpH7-A5/GpH7-B3/GpL16-k0 =100).

He/Con_2aR	Binder
156 % of control	B1
116 % of control	B2
121 % of control	B3
129 % of control	B4
150 % of control	B5
121 % of control	B6
138 % of control	B7
124 % of control	B8
109 % of control	B9
106 % of control	B10
100 % of control	B11
105 % of control	B12
110 % of control	B13
113 % of control	B14
109 % of control	B15
105 % of control	B16
106 % of control	B17
110 % of control	B18
104 % of control	B19
141 % of control	B20

He/Con_2aR	Binder
135 % of control	B21
147 % of control	B22
137 % of control	B23
103 % of control	B24
136 % of control	B25
115 % of control	B26
131 % of control	B27
105 % of control	B28
110 % of control	B29
103 % of control	B30
106 % of control	B31
106 % of control	B32
111 % of control	B33
109 % of control	B34
109 % of control	B35
105 % of control	B36
104 % of control	B37
122 % of control	B38
112 % of control	B39
108 % of control	B40

He/Con_2aR	Binder
114 % of control	B41
101 % of control	B42
129 % of control	B43
131 % of control	B44
117 % of control	B45
119 % of control	B46
105 % of control	B47
117 % of control	B48
119 % of control	B49
107 % of control	B50
108 % of control	B51
120 % of control	B52
133 % of control	B53
144 % of control	B54
116 % of control	B55
105 % of control	B56
143 % of control	B57
105 % of control	B58
101 % of control	B59
